Measured values published in the supplement of paper PMC9170038.

Test system: MS2 coat protein
Test: apparent KD of MS2 coat protein; designed switch direction (-1 OFF switch, 1 ON switch): -1; higher = weaker reporter binding
In short: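 SNAP-549-labelled MS2 coat protein was titrated, doubling from 0.7 or 1.5 nM to 3 µM, over designed RNA switches transcribed on Illumina chips by stalled E. coli RNA polymerase. Runs were done without input, with 200 uM small-molecule ligand, or with an oligonucleotide input. Apparent KD is the per-design median over clusters of curve-fitted normalised fluorescence.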

[1] = input ligand: microRNA oligo, concentration not stated
[2] = Eterna round: R95, input ligand: FMN 200 uM
[3] = Eterna round: R95, input ligand: microRNA oligo, concentration not stated
[4] = Eterna round: R95, input ligand: none

Row | Sequence | apparent KD of MS2 coat protein (input ligand: FMN 200 uM) [nM] | apparent KD of MS2 coat protein [1] [nM] | apparent KD of MS2 coat protein (input ligand: none) [nM] | apparent KD of MS2 coat protein [2] [nM] | apparent KD of MS2 coat protein [3] [nM] | apparent KD of MS2 coat protein [4] [nM]
1 | UUCCUCUCUUCUCCGUCUCACAUGAGGAUCACCCAUGUAACAUAGGAUAUGCUUGGUAUUUAAAUGCAGAAGGAUGUUAGUAUU [JR_ExcNG3_Sub081] (Eterna round: R96, puzzle: Exclusion NG 3) | 76.6 | 21.1 | 29.5 |  |  | 
2 | UGUUGUCGCGCAGGAUAUGAGGAUCACCCAUAUAAAGGAUAUGAAAAGAAGGUUCUGAGGAUCACCCAGAAGGGCGGGACAACU [pwkr exNG2 2xF5 2xFMN.18] (Eterna round: R96, puzzle: Exclusion NG 2) | 347 | 49 | 62.6 |  |  | 
3 | GCAAGAAUAGGAUAUACAACAUGCCAGCUUCUUUACAACGCACAUGAGGAUCACCCAUGUAGAAGGGUUCUCUA [Exclusion-2-#13] (Eterna round: R97, puzzle: Exclusion 2) | 209 |  | 261 |  |  | 
4 | AAUAGUUGAGUAGGAUAUGCAUCGACCGGCCGAGCAGAAGGACUCGUGAACUUGAGGAUCACCCAAGUGUCCUCGUUUGCUUGA [Mutated MS2 EX1.16] (Eterna round: R96, puzzle: Exclusion NG 1) | 139 | 125 | 134 |  |  | 
5 | AAAACUAACACGAAAGUGUUAGUAAAAUAAGCUUGUGGUACAUGAGGAUCACCCAUGUCCUCAUAAGCUCGUCUUAU [Mat - Sensor v3 - Turn-off var 2 - D44] (puzzle: Sensor v3, turn-off variant 2) |  |  |  | 25.1 | 67.7 | 24.5
6 | GACAUGAGGAUCACCCAUGUAACCUCAUGUAGGAAGGAGAGUAAGGAUAUACAUGAAGGAAUGAAGUAGAAGGUGCAUAGAGAG [Default title] (Eterna round: R96, puzzle: Exclusion NG 3) | 605 | 377 | 586 |  |  | 
7 | CUGAUGUGAGGAUAUCUAAGGCGACCAUGAGACAUGGGCCAAGAGAAGGCACAUGAGGAUCACCCAUGUACCGA [Anertees] (Eterna round: R97, puzzle: Exclusion 4) | 83.8 |  | 22.2 |  |  | 
8 | GAGUGAAGUGCAGGAUAUCUAGAAGGAAGAAGGAGGAAACAUGAGGAUCACCCAUGUAAUCCAUAAGAGAAGGGCGGAGAGGAG [An ugly monster] (Eterna round: R96, puzzle: Exclusion NG 2) | 16.3 | 14.3 | 18.3 |  |  | 
9 | AAUAACAGAGGAUAUACUAUUUUAUGUGUUUGUUAUUUUGAACAUGAGGAUCACCCAUGUAGAAGGCUGAUUAA [JMF 49] (puzzle: Exclusion 2) |  |  |  |  | 39.4 | 
10 | UAUUUAGCAAGCAGAUCCCACAUGAGGAUCACCCAUGUUCUCUGAACGUACAGAAUUACUGUACGAGCUCGUCUUAU [Winner reversed engineered 30] (Eterna round: R97, puzzle: Sensor, turn-off variant 1) | 352 |  | 352 |  |  | 
11 | UAUUAGCAAGUGAGGUCCCACAUGAGGAUCACCCAUGUGCUCGUCUUAUAAGGUACUGUGACGAAAGUCACGGUACC [Sensor 3, v1 - 95 v4] (Eterna round: R97, puzzle: Sensor, turn-off variant 1) | 48.7 |  | 40.8 |  |  | 
12 | CCUCCCUGAGGAUAUCCACCCUCAUACAUGAGGAUCACCCAUGUUCAUCCGUGGGUACCCGGAGAAGGCAGCUCUC [Megrez-c] (Eterna round: R97, puzzle: Exclusion 5) | 80.8 |  | 86.7 |  |  | 
13 | GCCGAUUAAGUCAGGAUAUACCUAUGGAUACAUAGGUAGAAGGGACAUGAGGAUCACCCAUGUUCCUCACCGGC [Fiskers BMX 4 - 15] (puzzle: Brourd's mod of Exclusion 4) |  |  |  |  | 12 | 
14 | AUUAUUUAAGUCAGGAUAUCGUAUUUAAUUAAAUACGAGAAGGGACAUGAGGAUCACCCAUGUAAUAAAUUUUA [JMFs Solution 1] (puzzle: Brourd's mod of Exclusion 4) |  |  |  | 24.1 | 14.2 | 15.9
15 | GUAGAGUAAGGAUAUAGAGAAUAGGAUAGAAUGGUUAGAAUCUAGAAGGUACAUGAGGAUCACCCAUGUAAUGU [Excluse me!!!! 7 - Jieux - Exclusion 4] (puzzle: Exclusion 4) |  |  |  |  | 18.7 | 
16 | UCAAGCUUUAAGCGUGUGAACAUGAGGAUCACCCAUGUAUUUUAGGUAAUAAGUUCAAUUAUGUAUUCUCGUCUUAU [JR_SWV3TOV1_Sub095] (puzzle: Sensor v3, turn-off variant 1) |  |  |  | 42.4 | 37.4 | 45.6
17 | AGUUAGAUAGGAUAUGCCCGAGAUAACAUGAGGAUCACCCAUGUGACCGAAUCUAUUCUAGCAGAAGGGUUUAGGA [Mod of ViennaUCT 18 - Jieux - Exclusion 5] (Eterna round: R97, puzzle: Exclusion 5) | 23.6 |  | 31.3 |  |  | 

Row | Sequence | apparent KD of MS2 coat protein (input ligand: FMN 200 uM) [nM] | apparent KD of MS2 coat protein [1] [nM] | apparent KD of MS2 coat protein (input ligand: none) [nM] | apparent KD of MS2 coat protein [2] [nM] | apparent KD of MS2 coat protein [3] [nM] | apparent KD of MS2 coat protein [4] [nM]
18 | GAGCUAUGAGGAUAUGCAUAUAUGCGGUUUCGUGUGGUACUACAUGAGGAUCACCCAUGUAGAAGGCGUGGCAG [Mat - Exclusion 2 - Mod of JL - D79] (puzzle: Exclusion 2) |  |  |  |  | 13.2 | 
19 | CAUGAUUGGCGAGGAUAUUGAUCUACAUGGCGACGAGAAGGCGCCUGUCACAUGAGGAUCACCCAUGUGAGUCUGGUGAAUGAG [Ex NG1 #85] (Eterna round: R96, puzzle: Exclusion NG 1) | 67.2 | 25 | 42.6 |  |  | 
20 | CUCCUGUAAGGAUAUCUGACAAGUGACGAAAGUCACAGUUCAGAGAAGGUACAUGAGGAUCACCCAUGUAGAAC [Exclusion 4 - Mod Brourd Ex 4-3: 41 v.2] (puzzle: Exclusion 4) |  |  |  |  | 31 | 
21 | UGACGAGUAGGAUAUUGGACUUGCGACAUGAGGAUCACCCAUGUGACGUCAACGUGGCACCAAGAAGGGCUACGUC [Gelareusdi] (Eterna round: R96, puzzle: Exclusion 5) | 53.4 | 49.3 | 63.3 |  |  | 
22 | UGAUCUUGAGUCAGGAUAUGCUGGUAUUUUUACCAGCAGAAGGGACAUGAGGAUCACCCAUGUUCUCACUUUUU [Magic-13] (puzzle: Brourd's mod of Exclusion 4) |  |  |  |  | 10.5 | 
23 | CAAAAGGUAGGAUAUACGAAAAAAAAGGGUAGAAAAAAAACACAUGAGGAUCACCCAUGUAGAAGGACCAAAAG [salish99_ex2_r3_053] (puzzle: Exclusion 2) |  |  |  | 71.2 | 24.9 | 22.2
24 | GUUCGACAUGAGGAUCACCCAUGUGAGGAUAUACGAUUAGCUGCUAGGUAGUUAGUAUGUAGAAGGUGCGUGUU [EX1 #70] (Eterna round: R97, puzzle: Exclusion 1) | 53.3 |  | 54.2 |  |  | 
25 | GGUUGGCGAGGAUAUACAUGAGGAUCACCCAUGUCAGAGAAAAAAGUGAGGAAGAAAAGUAGAAGGCGCUGACG [salish99_ex3_r3_017] (puzzle: Exclusion 3) |  |  |  | 199 | 210 | 118
26 | AACAGUACAGGAUAUACAUGAGGAUCACCCAUGUGAGAAUUAUGUGGCGUACCACAAAGUAGAAGGGUACUGGA [JL Maslow Revisted mod 3] (Eterna round: R96, puzzle: Exclusion 3) | 497 | 61.3 | 69.6 |  |  | 
27 | GGUGCGUAUGUGAGGAUAUGCUGGUCCUUGGCUCAGCAGAAGGCACAUGAGGAUCACCCAUGUGGUGUCGUACC [salish99_Bmod_Ex4_027] (puzzle: Brourd's mod of Exclusion 4) |  |  |  |  | 229 | 
28 | AGUGUGUGGCAGGAUAUGCGAUUUAUAGGUGAAGCAGAAGGGUCUACAUGAGGAUCACCCAUGUGUGCGGUUGA [Ex6 #21] (Eterna round: R97, puzzle: Exclusion 6) | 318 |  | 160 |  |  | 
29 | GCGAAUAACGAGGAUAUCGUAUCGGAAACGAUACGAGAAGGUGUAACAUGAGGAUCACCCAUGUUCCUCAACGC [Fiskers Ex 6 - 7] (puzzle: Exclusion 6) |  |  |  |  | 33.1 | 
30 | AGAUGUCCGCAGGAUAUGCGGGCGAGGCCCUAAGCAGAAGGGCGGACAUGAGGAUCACCCAUGUGAGUAAAAGA [EX6 A.23] (Eterna round: R97, puzzle: Exclusion 6) | 94.2 |  | 25.2 |  |  | 
31 | CGUCCGAACUCAGGAUAUCAACUUAACAACAUGAGGAUCACCCAUGUGGCCUGUAAAACCCGAGAUGAGAAGGGAGGGCGGGCC [Usceondiat] (Eterna round: R96, puzzle: Exclusion NG 2) | 13.6 | 15.4 | 19.7 |  |  | 
32 | UAAAACGGAGGAUAUACUGACCCUCAAAACAGACGCGCUGGACAUGAGGAUCACCCAUGUAGAAGGCCGAAUGC [Titeustele] (puzzle: Exclusion 2) |  |  |  |  | 21.7 | 
33 | AGCGAAUAGCUAGGAUAUGAGAAUAGAUAGAGCUCAGAAGGAGCACAUGAGGAUCACCCAUGUAAAGUCUUGAGGCUGCGUGGU [Prohibition 16 - Jieux - Exclusion NG 1] (Eterna round: R96, puzzle: Exclusion NG 1) | 79.5 | 27.2 | 66.3 |  |  | 
34 | GAUUAUGCGAGCUUUAGGGACAUGAGGAUCACCCAUGUUCGUCUUAUUGGUCUAGGUGCGCUAACAUACCUAAAUCU [JMF 51] (puzzle: Sensor v3, turn-off variant 1) |  |  |  | 21.9 | 34.8 | 25.4
